These results are taken from patent US20170158768A1 (PENN STATE RESEARCH FOUNDATION, published 2017).

The assay has as its target T1, CD11b (mouse, UniProt P05555 17-1153).
T1 construct: Endogenous protein immunoprecipitated from Raw264.7 macrophage extracts with monoclonal CD11b antibody; Its integrin beta partner is not mentioned
Description: co-immunoprecipitation with monoclonal CD11b antibody, Western blot. Background: Immunoblotting shows a protein as a band on a membrane.

T1 sequence (P05555 17-1153 limits assumed): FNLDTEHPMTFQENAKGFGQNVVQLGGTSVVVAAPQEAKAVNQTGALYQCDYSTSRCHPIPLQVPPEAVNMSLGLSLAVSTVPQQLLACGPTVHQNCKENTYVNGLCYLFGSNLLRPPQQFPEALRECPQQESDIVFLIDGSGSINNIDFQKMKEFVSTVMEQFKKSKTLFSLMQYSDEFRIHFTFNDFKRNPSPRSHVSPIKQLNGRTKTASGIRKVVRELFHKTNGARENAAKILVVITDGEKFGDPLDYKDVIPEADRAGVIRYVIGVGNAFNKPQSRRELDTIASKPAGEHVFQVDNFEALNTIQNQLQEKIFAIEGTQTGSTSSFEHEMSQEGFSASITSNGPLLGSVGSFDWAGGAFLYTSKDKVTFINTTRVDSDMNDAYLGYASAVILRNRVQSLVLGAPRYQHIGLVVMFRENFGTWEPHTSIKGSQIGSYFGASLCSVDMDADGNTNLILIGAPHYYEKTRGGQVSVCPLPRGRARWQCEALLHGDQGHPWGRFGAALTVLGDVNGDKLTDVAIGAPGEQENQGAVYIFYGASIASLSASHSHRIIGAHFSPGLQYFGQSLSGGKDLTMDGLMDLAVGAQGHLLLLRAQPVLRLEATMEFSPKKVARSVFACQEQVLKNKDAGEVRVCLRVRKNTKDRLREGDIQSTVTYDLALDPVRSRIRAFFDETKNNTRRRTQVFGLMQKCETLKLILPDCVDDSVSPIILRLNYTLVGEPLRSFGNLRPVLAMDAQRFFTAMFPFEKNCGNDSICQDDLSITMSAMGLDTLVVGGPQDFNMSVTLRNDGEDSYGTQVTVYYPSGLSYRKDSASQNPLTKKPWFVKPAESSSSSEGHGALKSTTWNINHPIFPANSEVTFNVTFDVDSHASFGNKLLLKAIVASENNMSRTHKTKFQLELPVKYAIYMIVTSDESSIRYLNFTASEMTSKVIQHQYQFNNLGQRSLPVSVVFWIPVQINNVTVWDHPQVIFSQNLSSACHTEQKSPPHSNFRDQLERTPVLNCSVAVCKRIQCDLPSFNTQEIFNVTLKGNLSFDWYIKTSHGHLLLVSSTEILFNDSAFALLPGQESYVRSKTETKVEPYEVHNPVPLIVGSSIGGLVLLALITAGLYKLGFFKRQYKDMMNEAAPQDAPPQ

B1: CD36 (receptor, mouse, UniProt Q08857 1-472, looked up)
chain: MGCDRNCGLIAGAVIGAVLAVFGGILMPVGDMLIEKTIKREVVLEEGTTAFKNWVKTGTTVYRQFWIFDVQNPDDVAKNSSKIKVKQRGPYTYRVRYLAKENITQDPEDHTVSFVQPNGAIFEPSLSVGTEDDNFTVLNLAVAAAPHIYQNSFVQVVLNSLIKKSKSSMFQTRSLKELLWGYKDPFLSLVPYPISTTVGVFYPYNDTVDGVYKVFNGKDNISKVAIIESYKGKRNLSYWPSYCDMINGTDAASFPPFVEKSRTLRFFSSDICRSIYAVFGSEIDLKGIPVYRFVLPANAFASPLQNPDNHCFCTEKVISNNCTSYGVLDIGKCKEGKPVYISLPHFLHASPDVSEPIEGLHPNEDEHRTYLDVEPITGFTLQFAKRLQVNILVKPARKIEALKNLKRPYIVPILWLNETGTIGDEKAEMFKTQVTGKIKLLGMVEMALLGIGVVMFVAFMISYCACKSKNGK
Turning to B1, the binding result was “no binding”.

B2: TLR-2 (receptor, mouse, UniProt Q9QUN7 25-784, looked up)
chain: QESLSCDASGVCDGRSRSFTSIPSGLTAAMKSLDLSFNKITYIGHGDLRACANLQVLILKSSRINTIEGDAFYSLGSLEHLDLSDNHLSSLSSSWFGPLSSLKYLNLMGNPYQTLGVTSLFPNLTNLQTLRIGNVETFSEIRRIDFAGLTSLNELEIKALSLRNYQSQSLKSIRDIHHLTLHLSESAFLLEIFADILSSVRYLELRDTNLARFQFSPLPVDEVSSPMKKLAFRGSVLTDESFNELLKLLRYILELSEVEFDDCTLNGLGDFNPSESDVVSELGKVETVTIRRLHIPQFYLFYDLSTVYSLLEKVKRITVENSKVFLVPCSFSQHLKSLEFLDLSENLMVEEYLKNSACKGAWPSLQTLVLSQNHLRSMQKTGEILLTLKNLTSLDISRNTFHPMPDSCQWPEKMRFLNLSSTGIRVVKTCIPQTLEVLDVSNNNLDSFSLFLPRLQELYISRNKLKTLPDASLFPVLLVMKIRENAVSTFSKDQLGSFPKLETLEAGDNHFVCSCELLSFTMETPALAQILVDWPDSYLCDSPPRLHGHRLQDARPSVLECHQAALVSGVCCALLLLILLVGALCHHFHGLWYLRMMWAWLQAKRKPKKAPCRDVCYDAFVSYSEQDSHWVENLMVQQLENSDPPFKLCLHKRDFVPGKWIIDNIIDSIEKSHKTVFVLSENFVRSEWCKYELDFSHFRLFDENNDAAILVLLEPIERKAIPQRFCKLRKIMNTKTYLEWPLDEGQQEVFWVNLRTAIKS
In the case of B2, the binding result is reported as “no binding”.
